Patent US20160102121A1 (UNIVERSITY OF NORTH CAROLINA AT CHAPEL HILL, published 2016)
Where no end group is shown, it is not given here. [ ]: non-standard residue; d: D form. Nle = CCCC[C@H](N)C(=O)O

Molecular target: epithelial Na+ channel (ENaC) on human bronchial epithelial cultures (human, UniProt P37088 1-669; P51168 1-640; P51170 1-649)
Assay: cell-based or functional assay

Sequence of epithelial Na+ channel (ENaC) on human bronchial epithelial cultures (P37088 whole entry, chain 1 of 3): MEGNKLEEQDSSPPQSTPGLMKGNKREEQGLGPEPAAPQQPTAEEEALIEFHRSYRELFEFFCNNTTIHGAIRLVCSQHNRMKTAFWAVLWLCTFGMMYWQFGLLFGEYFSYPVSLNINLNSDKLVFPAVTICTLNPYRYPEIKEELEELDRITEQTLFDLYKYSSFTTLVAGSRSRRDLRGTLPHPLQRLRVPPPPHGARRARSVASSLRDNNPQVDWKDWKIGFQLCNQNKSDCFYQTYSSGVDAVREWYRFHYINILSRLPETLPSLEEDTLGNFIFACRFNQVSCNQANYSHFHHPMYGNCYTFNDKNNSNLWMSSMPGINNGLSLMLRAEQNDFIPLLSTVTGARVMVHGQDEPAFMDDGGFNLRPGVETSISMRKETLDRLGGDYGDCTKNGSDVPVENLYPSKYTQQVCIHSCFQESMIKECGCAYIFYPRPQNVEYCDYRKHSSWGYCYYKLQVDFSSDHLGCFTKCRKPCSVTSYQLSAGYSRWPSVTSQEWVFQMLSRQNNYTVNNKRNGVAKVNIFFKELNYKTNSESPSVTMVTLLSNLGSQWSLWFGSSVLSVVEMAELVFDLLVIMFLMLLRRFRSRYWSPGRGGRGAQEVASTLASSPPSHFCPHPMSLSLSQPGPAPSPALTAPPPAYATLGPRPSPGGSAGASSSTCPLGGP
Sequence of epithelial Na+ channel (ENaC) on human bronchial epithelial cultures (P51168 whole entry, chain 2 of 3): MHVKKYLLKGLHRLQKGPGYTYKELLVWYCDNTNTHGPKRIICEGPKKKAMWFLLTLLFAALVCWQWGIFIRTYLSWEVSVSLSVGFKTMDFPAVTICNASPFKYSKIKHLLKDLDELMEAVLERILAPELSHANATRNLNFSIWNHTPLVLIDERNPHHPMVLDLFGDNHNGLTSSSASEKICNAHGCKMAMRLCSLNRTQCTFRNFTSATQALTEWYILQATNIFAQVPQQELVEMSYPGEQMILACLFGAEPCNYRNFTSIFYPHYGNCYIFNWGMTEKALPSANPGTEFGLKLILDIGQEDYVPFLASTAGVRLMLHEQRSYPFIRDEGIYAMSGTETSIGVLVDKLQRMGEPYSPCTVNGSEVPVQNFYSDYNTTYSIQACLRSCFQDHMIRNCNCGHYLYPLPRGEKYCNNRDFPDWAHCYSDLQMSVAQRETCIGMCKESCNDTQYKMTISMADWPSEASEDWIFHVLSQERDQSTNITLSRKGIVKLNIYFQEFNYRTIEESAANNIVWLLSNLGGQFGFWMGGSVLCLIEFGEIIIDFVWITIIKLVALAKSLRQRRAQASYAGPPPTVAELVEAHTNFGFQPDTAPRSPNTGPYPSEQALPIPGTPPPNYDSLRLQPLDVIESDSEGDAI
Sequence of epithelial Na+ channel (ENaC) on human bronchial epithelial cultures (P51170 whole entry, chain 3 of 3): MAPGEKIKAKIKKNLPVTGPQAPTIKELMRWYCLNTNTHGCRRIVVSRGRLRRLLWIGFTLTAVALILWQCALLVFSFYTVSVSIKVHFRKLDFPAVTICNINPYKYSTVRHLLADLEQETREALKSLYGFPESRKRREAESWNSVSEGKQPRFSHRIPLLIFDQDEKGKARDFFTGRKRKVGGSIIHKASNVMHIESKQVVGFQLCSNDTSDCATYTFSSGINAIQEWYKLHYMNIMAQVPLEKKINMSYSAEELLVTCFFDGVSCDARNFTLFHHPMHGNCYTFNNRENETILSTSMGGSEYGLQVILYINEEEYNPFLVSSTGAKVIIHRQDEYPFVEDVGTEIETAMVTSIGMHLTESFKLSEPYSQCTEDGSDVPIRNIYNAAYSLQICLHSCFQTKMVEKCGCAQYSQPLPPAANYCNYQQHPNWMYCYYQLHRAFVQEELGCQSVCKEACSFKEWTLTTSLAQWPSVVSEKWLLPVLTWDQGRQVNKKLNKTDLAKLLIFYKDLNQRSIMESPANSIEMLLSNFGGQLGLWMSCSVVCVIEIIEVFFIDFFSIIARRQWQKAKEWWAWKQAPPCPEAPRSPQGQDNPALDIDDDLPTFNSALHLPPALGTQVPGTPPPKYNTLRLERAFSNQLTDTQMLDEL

Binder: [dA][dA]LP[Nle]PLDQT[dA][dA] [aaLPNlePLDQTaa (SEQ ID NO:5)]
- IC50, dose response on airway cells (ASL height): 30 nM
